Measured values from a protein production outcome set (Wang et al. 2014).

Assay: label from the status in PepcDB records

Sequence	protein production
MINKVLLEGQRITRSPQVKQHACGASFFLVVLLLIGGLLYSTISWMWDEQRLPLSKLVLQGDLHYVSALDVQRVLARLDHIGTFMSQDINVLQESVQSIPWVSHASIRKQWPDTIKVYLTEYQVEALWNANALLDKNGTVFYGDIARVNGEYVKLYGPDGTAPQVLKAWRDYNPKFAQLGLNISSLVLNDRRAWQIILDNGIRLELGKESLEERISRFFLLYKQLGNKAEQVSYIDLRYDTGAAVGWFPEQELTQEKNDD	failed
MINMKVAISMDVDKISNSFEDCKYFLIVRIDDNEVKSTKVIFNDESGKKSIVKENVNAIICKNISEENYKKFSKKIEIYHAEGDDVDKNISLFIEGELSKISNP	not failed
MINQATSPAAPISLTTKGLRWANLAFMLYLLLLAVAMVGSGFKWATGDQAKVLFEFASHPIAGLMIGLVATALIQSSSTVTSIIVGLVAGGLPVETAIPMVMGANIGTTVTNTLVSLGHMRCKEEFRRAFASATIHDFFNLLAVLIFLPLEMMFGILEKVSHWLVSPLLATGDMSMKGFDFIKPITKPVITGLETQLSVLGNTFGGVALIVLGIATIFVAITVMGKLMKSLMVGRAREILQNAIGRGPLHGIASGTVVTVLVQSSSTTTSLMVPLVGSGVLKVREIYPFTLGANIGTCITALLAATAVSGEFAVFALQIALVHLSFNLMATVLIYGIPFLRELPIKGAELISTWACKSKMVVVSYLLGVFVVIPGSILALTA	failed
MINSVGVVRKEAENCNCLQVFFVSGSFKVDSVEAKKKEENFRETLRDMANSKYEYVKSFELEDEVMLPNLMVVRIDGRDFSRFSQVHEFEKPNDETALNLMNSCSAAVLEEFPDIIFAYGYSDEYSFVFKKTSRFYQRRASKILSLVASFFAAVYVTKWKEFFPQRKLLYAPSFSSKVVSCASAEVLQAYLAWRQQDCHANNQYDTCFWMLVKSGKSVSETQEILKDTQKQQKNELLFQKFGINYKTLPELFRQGSCLFKKKVEETVKHDENGNPVKRLRRKAVFVHSENIAGRSFWNEQPSLYNDLGHFTKDIGKIEPDFIRSFQFENKLLPLTWVVVRIDGCHFHRFSDVHEFEKPNDEQALKLMNSCAVAVLEEFEDIHFAYGVSDEYSFVLKKESELYKRQSSKIISAVASFFTSTYVLQWGEFFPHKELKYPPSFDGRAVCYPTYNILLDYLAWRQVDCHINNQYNTCFWMLVKSGKNKTQSQDYLKGTQTREKNELLSRQFGIEYNSLPVIFRMGSSVFRLKEAENGVVSGKKLEGEVVVDHCNIIERCFWEEHLHILSYS	failed
MINVLILGAASQISRFLIPDLLADKTVYLTLFARQAPQRLGQYAGESRVTLVDGDWNQEADIEQVMSNQDIVFLASSSLVGNQNVVTVMKHTGVQRLIVAGGLGIDDEVAGKFGNWNTRMMGDYTPYKQAAKVILDSGLNTTYLRMTWLYDENGNEKYQIVPEGQPLRGTQVTRQAVAKLVTAIVRQPSLYQYANIGVVEPGTEWDKPSFYLEHHHHHH	failed
MIPFPESRLAAQMSFVVEIDKLKTILRQTLLTDSSRRENDAEHSWHIATMAFLLAEYADEAVQIGRVARMLLIHDIVEIDAGDTFIHDEAGNEDKEERERKAAARLFGLLPPDQAAEYSALWQEYEARETADARFADALDRLQPLLHNFETEGGTWKPHGVTRAKVDKLLPRIEAGSKRLGAYARALVDEAVRRGYLAP	not failed
MIPFTIEYIFVLIGAFLLSIILTPIIRVISLKVGAVDKPNARRINKVPMPSSGGLAIFLSFVVTTLFFMPMAASRHFIEVSYFHYILPVIIGGLVVTTTGFIDDIFELRPRYKMLGIIIAAIIIWKFTHFRFDSFKIPIGGPLLEFGPILTFFLTVLWIISITNAINLIDGLDGLVSGVSIISLATMAVVSYFFLPKIDFFLTLTIVILIASIVGFFPYNYHPAIIYLGDAGALFIGFMIGVLSLQGLKNSTAVAVITPVIILGVPILDTAVAIVRRKLSGKKISEADKMHLHHRLLSMGFTHRGAVLVVYGIAIIFSLIALLLNVSSRIGGIFLLLALLLAMEIFIEGLNIWGENRTPLFNLLKFIGNSDYRQSVIAKYSDKHQK	failed
MIPIHPVGGSQTPASSTAAAGTGDAVTSVFLQPGRISLPASPPLSLYVHVPWCVRKCPYCDFNSHAEPEAGIPEDRFLAAIRQDLEAALPMVWGRRVHTIFIGGGTPSLLSARGLDTLLSDIRMLLPVDADAEITMEANPGTFEAERFRSYRASGVNRLSIGIQSFNDTHLQALGRIHSAAEARAAIDIARAHFDNINLDLMFALPGQTLAECEADVEAALSFGTSHVSLYHLTLEPNTYFAKHPPALPDDDTAFAMQDWIHARLAAAGYEHYEVSAYARPGKRCKHNLNYWQFGDYLGIGPGAHGKLSFPHRVIRDMRHKHPETYLRQAETAGGATVVQEQREVDAADLPFEFMLNALRLTDGFPVTLFQERTGLPLRGIERELDAAERRGLLVHDHATIRPTELGQRFLNDLQALFLADDEN	failed
MIPLMHDFEGETVLVVGGGSVGARKARTFATEASVVVLSPEFGDRTFADAEKVRAAPTPEDATDWVERTDPALVVAATDDSDLNGAFSTAAAEHGALVNRTDDHGDQSFGNIVVPATVRDDPVTLAIATGGRAPALSKHLRERFEDEFGNAGLMADLVGDLREDLRDRGVPPAKRRDAVRFVVRSREVWKALDSGRSKGEQVARDVIGELPGDQT	not failed
MIPLVSIIVPMYNVEPFIEECIDSLLRQTLSDIEIILVNDGTPDRSGEIAEDYAKRDARIRVIHQANGGLSSARNTGIKAARGTYIGFVDGDDYVSSAMFQRLTEEAEQNQLDIVGCGFYKQSSDRRTYVPPQLEANRVLTKPEMTEQLKHAHETRFIWYVWRYLYRRELFERANLLFDEDIRFAEDSPFNLSAFREAERVKMLDEGLYIYRENPNSLTEIPYKPAMDEHLQKQYQAKIAFYNHYGLAGACKEDLNVYICRHQLPMLLANACASPNSPKDIKKKIRQILSYDMVRQAVRHTPFQHEKLLRGERLVLALCKWRLTFLIKLFFEQRGTMKGSAKQALEHHHHHH	failed
MIPMEELKVKKITNGTVIDHIDAGKALMVFKVLNVPKETSVMIAINVPSKKKGKKDILKIEGIELKKEDVDKISLISPDVTINIIRNGKVVEKLKPQIPDEIEGTLKCTNPNCITNKEKVRGKFKIESKNPLKIRCYYCEKFLNEVIFE	not failed
MIPRVRAPELPQNYPWLNTEQPLSIKQLNGRVVILDFWTYCCINCLHVLPDLKYLEQKYKDSLTVIGVHSAKFDNEQETENIRQAILRYDIEHPVLVDKDFRVWQEYAVRAWPTLMVIDPKGYVIGYVSGEGNRDKLDQLITQVIQEHQGAINFQQLSLTLEKQRQPLITPLAFPGKVLATPSGLFVADSGHHRIVVSDFNGEILHLIGNGKSGLTDGNFQEAQFSAPQGMAFDMENQILYLADTENHALRRVDINQQTVETIAGTGEQSRNIQPHGGVGLETALNSPWDLVNIENSLYIAMAGVHQIWQMDLASGVIKTYAGTGVEACLDASLTESAFAQPSGITNNEQELYIADSEISSIRGVGLVEPQEVRTVCGSGGLFGFGDVDGQGEDVRLQHCLGVEYFQNYLWVADTYNHKIKSVSPHTGNCQTVLGDGLAGLQNGQGKNTRFFEPSGLSAIDSYLYISDTNNHVIRRVDLRTLEVTTMQFNGLCAPDVCIPNNFLEHHHHHH	failed
MIPVTSFRGKKVALFGLGGSGLVTARALVAGGAAVVAFDDNPDSVAKAQAEGIATADLHTIDWSSFSSFVLAPGVPLTHPKPHWSVDLAKAAGVEVIGDIELFIRERRVHAPDCPFIAITGTNGKSTTTALIAHILQSSGRDTQLGGNIGTAVLSLDPPKAQRFYVVECSSYQIDLAPTINPTAGILLNLTPDHLDRHGTMQHYADVKERLVAGSGTAIVGVDDSHSTLIADRIERAGVKVERISKRNVVSEGLYAEGSQILRAHGGTSSLLVDLDGIQTLRGSHNAQNAAAAIAACLAVGVSEEEIRAGLKSFPGLKHRMQPVGRRGNVTFVNDSKATNADAAAPALSSFDRIYWIAGGLPKAGGITSLSPLFPRIAKAYLIGEAAAEFAATLGEAVPYEISGTLDKAVQHAAADAEKDATAGNVVMLSPACASFDQYKNFEIRGDSFVAQVAALEGMTMLVHSGKGG	failed
MIPYVNEYDTPNCNTLAETAKKSIRTPESLGLDRCIQCGACTASCPAARFTDYSPRQIVKKVLENDRSVLESDMIWSCFYCYSCNMRCPRNNSPVTIVQVLRQMAINEGIGIGKLAYFLEIGECLAENGASKVPGAGVKNMERDLGERWIGIKRNLEPIRSELGLSPRDVRDTHGEVQAILESTGYFEREKWIKAGIQEKKLHGFLKADCSDEEKKNGDFCFESDREYTGQEAITV	failed
MIQEIASILVQPGREADFEAGVAQARPLFMRARGCHGVALHRSIEAPQRYTLVVDWETVDNHMVDFRQSADFQEWRKLVGECFAEPPQVHHEQKVL	not failed
MIQSSLYRALNKGFDYQILACKDFKESELAKEVISYFKPNTKAILFPEFRAKKNDDLRSFFEEFLQLLGGLREFYQALENKQETIIIAPISALLHPLPKKELLESFKITLLEKYNLKDLKDKLFYYGYEILDLVEVEGEASFRGDIVDIYAPNSKAYRLSFFDTECESIKEFDPITQMSLKEDLLEIEIPPTLFSLDESSYKDLKTKVEQSPLNSFSKDLTSFGLWFLGEKAQDLLIVYKSIISPRALEEIQELASLNELDCERFKFLKVLENAQGYEDLEIHAHALEGFIALHSNHKITLLAPNKTILDNAISALDAGNMECVIAPFVLNFKTPDGIFISLNSFERKKKRQKSKLALNELNPGEWVVHDDYGVGVFSQLVQHSVLGSKRDFLEIAYLGEDKLLLPVENLHLIARYVAQSDSVPAKDRLGKGSFLKLKAKVRTKLLEIASKIIELAAERNLILGKKMDVHLAELEVFKSHAGFEYTSDQEKAIAEISKDLSSHRVMDRLLSGDVGFGKTEVAMHAIFCAFLNGFQSALVVPTTLLAHQHFETLRARFENFGVKVARLDRYASEKNKLLKAVELGQVDALIGTHAILGAKFKNLGLVVVDEEHKFGVKQKEALKELSKSVHFLSMSATPIPRTLNMALSQIKGISSLKTPPTDRKPSRTFLKEKNDELLKEIIYRELRRNGQIFYIHNHIASILKVKTKLEDLIPKLKIAILHSQINANESEEIMLEFAKGNYQVLLCTSIVESGIHLPNANTIIIDNAQNFGLADLHQLRGRVGRGKKEGFCYFLIEDQKSLNEQALKRLLALEKNSYLGSGESVAYHDLEIRGGGNLLGQDQSGHIKNIGYALYTRMLEDAIYELSGGKKRLEKSVEIQLGVSAFLNPELIASDSLRLDLYRRLSLCENTDEVGQIHEEIEDRFGKIDDLSAQFLQIITLKILANQLGIIKLSNFNQNITITYSDEKKESLKAPSKDDNDILETLLKHLRAQISLKRR	failed
MIRGGRNNITSAPAFSKDAKKLLLCTANTVSVYSVATGLKITSLEDHTAPVTSVIVDPSSDETVSYCWTSSLDGKIRIWEFSAPKLLKIFDTHLPIHSLVMIPAQVSHSVIAYVSVEDYSSVSKDLFGQIRRYDLTQDPLHSGDTLKEMEEPKPIVLSPSGEFFGVCHNCSIHIWNVASEHLMPKETTLHHTELITVFAFHPNQRILAAGDVTGRVLIWKDNGIGEFTSVKTEDDTESCTTFNWHSAEVTVLNFSSDGALLYSGVKAGDFVVWELGTGKKQLLPKIGSPLLYFIFSSDSTLSSVICADNQIHLLKMPSMEILRTISGIKPPTPERHGFICYVKTRDICLTRTVSIDRSSGIAAFCTANHRVQLYNLLSDHDISEVQICDHHPDDDDQVRVLVTAVALSRNGSVMTTAEARFAASNFSEGIVSLKFWVFVPDSKTFSLSTVINQPHREAAITAIALNPARSMAVSISSAGDFKIWVCSSDKNLTPEDSNWICHGVGSYKRTPITAAVFSGDGSCLALAAKTVITIWHPLKNELLYVVGKANAPIMELSFTGGGFLIAASHGSTPHLSVWDLMTFCLSWSYRLYIEAIATEVDSPYFAVLTWLPESDRLVKSNEQIFRGKDGAILLFDGSGPKPVAIWTVMKARGGTLSFVEDGKKSQPLLAYVNRSHEYVLFDPYSDEKLETSAIDYEVFLAAISKKKKRSRKKALMSEKPWETMFCGSTLNFPPFPDLCASFFSSRMQKEVCERADRQPERHSS	failed
